Target: unlabelled HP1α (human, UniProt P45973 1-191)
Sequence (P45973 whole entry): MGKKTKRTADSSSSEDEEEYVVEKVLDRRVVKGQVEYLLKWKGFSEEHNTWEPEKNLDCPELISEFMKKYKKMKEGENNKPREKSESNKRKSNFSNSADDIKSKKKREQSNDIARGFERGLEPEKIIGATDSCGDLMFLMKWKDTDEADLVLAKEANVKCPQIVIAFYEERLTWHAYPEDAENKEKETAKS

ARTKQTARKSTGGK (trimethyl-lysine at K9) [H3K9me3 1–14 peptide]
Kd: 7.57 µM

— publication PMC4557296 (2015)
